This assay has as its target human full-length alpha-synuclein (human) (UniProt P37840). The assay is described as follows: indirect ELISA on coated full-length alpha-synuclein, O.D. 405 nm. (In general: An ELISA detects its analyte on a solid surface through an enzyme-linked reagent.)

Consider one substance from patent US20250340623A1.

Turning to Syn1 (antibody), the 50% effective concentration (EC50 (read off the curve)) (as a rule, the concentration that produces a half-maximal response) came to 6 ng/mL.
